Test [1] addresses ApHt_20, IsCT-like antimicrobial venom peptide from Mesobuthus martensii Karsch (Mesobuthus martensii Karsch).
For test [2] the target is unchanged. This is another data set of the same source.

In the case of “HAP-1, short-chain highly acidic peptide from Mesobuthus martensii Karsch”, in test [1], the MIC of ApHt 20 against Staphylococcus aureus AB94004 in the presence of 32 μM HAP-1 (8 μM without HAP-1) came out at 16 µM. The substance further showed an agar diffusion assay against Staphylococcus aureus AB94004: minimum concentration of HAP-1 required to completely inhibit the inhibition zone made by 40 nM ApHt 20 in test [2] of 140 nM.

The record behind these values is paper PMC6321396.
